Experimental data: the supplement of paper PMC10724198
± gives the standard deviation of the averaged measurements.

Columns and labels:
Saccharomyces cerevisiae [1] = experiment: protein stability index of tFT-peptide fusion (C-terminal peptide) (PSI (0-1 scale)); higher = more stable (slower turnover)
Experimental: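 MPS profiling in S. cerevisiae of the tFT-X12 degron library: putative degron peptides plus stable controls, 12 aa, fused to the C-terminus of a sfGFP-mCherry timer. Cells are FACS-sorted into 8 mCherry/sfGFP bins and deep-sequenced. PSI runs from 0 (unstable) to 1 (stable). Backgrounds are wild type, das1Δ and doa10Δ at 30 °C, and wild type, das1Δ, cdc34-1 and cdc53-1 at 37 °C; 2-3 technical replicates each.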

Saccharomyces cerevisiae [2] = experiment: as above; conditions: genetic background: wild type; temperature: 30 C
[3] = genetic background: cdc34-1, temperature: 37 C
[4] = genetic background: cdc53-1, temperature: 37 C
[5] = genetic background: das1 deletion, temperature: 30 C
[6] = genetic background: das1 deletion, temperature: 37 C
[7] = genetic background: doa10 deletion, temperature: 30 C
[8] = genetic background: wild type, temperature: 30 C
[9] = genetic background: wild type, temperature: 37 C
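Further: PSI is a weighted mean of sequencing reads over stability bins, variants kept only with over 10 reads, mCherry proximal and sfGFP distal, peptide attached via GGGS linker.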

| Sequence | protein stability index (Saccharomyces cerevisiae [1]; [3]) | protein stability index (Saccharomyces cerevisiae [1]; [4]) | protein stability index (Saccharomyces cerevisiae [1]; [5]) | protein stability index (Saccharomyces cerevisiae [1]; [6]) | protein stability index (Saccharomyces cerevisiae [1]; [7]) | protein stability index (Saccharomyces cerevisiae [1]; [8]) | protein stability index (Saccharomyces cerevisiae [1]; [9]) | protein stability index (Saccharomyces cerevisiae [2]) |
| --- | --- | --- | --- | --- | --- | --- | --- | --- |
| YFVLVRLICFLL | 0.347 ± 0.0092 | 0.438 ± 0.0066 | 0.289 ± 0.035 | 0.472 ± 0.01 | 0.194 ± 0.011 | 0.216 ± 0.039 | 0.373 ± 0.013 | 0.244 ± 0.085 |
| YNTVALRITLIT | 0.444 ± 0.017 | 0.538 ± 0.013 | 0.329 ± 0.05 | 0.5018 ± 0.0042 | 0.209 ± 0.00078 | 0.228 ± 0.017 | 0.364 ± 0.0086 | 0.348 ± 0.03 |
| YPLISVSLPCPS | 0.533 ± 0.018 | 0.6067 ± 0.0052 | 0.396 ± 0.042 | 0.585 ± 0.015 | 0.349 ± 0.005 | 0.404 ± 0.023 | 0.544 ± 0.016 | 0.489 ± 0.012 |
| YPRLVGGCWFRL | 0.318 ± 0.03 | 0.258 ± 0.037 | 0.371 ± 0.016 | 0.547 ± 0.032 | 0.644 ± 0.043 | 0.319 ± 0.041 | 0.603 ± 0.031 | 0.403 ± 0.047 |
| YSCFFFLFSFFF | 0.498 ± 0.023 | 0.56 ± 0.016 | 0.429 ± 0.027 | 0.5552 ± 0.0024 | 0.423 ± 0.022 | 0.406 ± 0.0031 | 0.50243 ± 1.8e-05 | 0.4853 ± 0.0041 |
| YSVFCPLFFIIY | 0.3507 ± 0.0014 | 0.323 ± 0.006 | 0.298 ± 0.04 | 0.458 ± 0.013 | 0.351 ± 0.014 | 0.283 ± 0.02 | 0.433 ± 0.0062 | 0.379 ± 0.014 |
| YTPPISRLLIFT | 0.528 ± 0.031 | 0.532 ± 0.0094 | 0.39 ± 0.035 | 0.564 ± 0.016 | 0.353 ± 0.019 | 0.364 ± 0.052 | 0.494 ± 0.022 | 0.497 ± 0.097 |
| YVFSPWSCWASV | 0.366 ± 0.019 | 0.396 ± 0.0044 | 0.416 ± 0.0081 | 0.361 ± 0.0059 | 0.4213 ± 0.00065 | 0.4048 ± 0.0027 | 0.351 ± 0.015 | 0.423 ± 0.015 |
| YVLWFVCGVGFV | 0.352 ± 0.015 | 0.462 ± 0.031 | 0.29 ± 0.045 | 0.4768 ± 0.0011 | 0.262 ± 0.024 | 0.298 ± 0.02 | 0.453 ± 0.028 | 0.392 ± 0.041 |
| YVWPKRRGLRVA | 0.611 ± 0.036 | 0.674 ± 0.023 | 0.467 ± 0.03 | 0.679 ± 0.009 | 0.197 ± 0.019 | 0.261 ± 0.038 | 0.49 ± 0.025 | 0.433 ± 0.013 |
| YYLVKCVYLRTT | 0.413 ± 0.013 | 0.4509 ± 0.0038 | 0.371 ± 0.029 | 0.504 ± 0.0098 | 0.155 ± 0.02 | 0.175 ± 0.0092 | 0.3201 ± 0.00022 | 0.254 ± 0.032 |
